We go through 1 molecule from article PMC8848936 (RNA, 2022).

The target in the test is T1, Tsr1–TAP (S. cerevisiae, UniProt Q07381 1-788).
T1 sequence (looked up): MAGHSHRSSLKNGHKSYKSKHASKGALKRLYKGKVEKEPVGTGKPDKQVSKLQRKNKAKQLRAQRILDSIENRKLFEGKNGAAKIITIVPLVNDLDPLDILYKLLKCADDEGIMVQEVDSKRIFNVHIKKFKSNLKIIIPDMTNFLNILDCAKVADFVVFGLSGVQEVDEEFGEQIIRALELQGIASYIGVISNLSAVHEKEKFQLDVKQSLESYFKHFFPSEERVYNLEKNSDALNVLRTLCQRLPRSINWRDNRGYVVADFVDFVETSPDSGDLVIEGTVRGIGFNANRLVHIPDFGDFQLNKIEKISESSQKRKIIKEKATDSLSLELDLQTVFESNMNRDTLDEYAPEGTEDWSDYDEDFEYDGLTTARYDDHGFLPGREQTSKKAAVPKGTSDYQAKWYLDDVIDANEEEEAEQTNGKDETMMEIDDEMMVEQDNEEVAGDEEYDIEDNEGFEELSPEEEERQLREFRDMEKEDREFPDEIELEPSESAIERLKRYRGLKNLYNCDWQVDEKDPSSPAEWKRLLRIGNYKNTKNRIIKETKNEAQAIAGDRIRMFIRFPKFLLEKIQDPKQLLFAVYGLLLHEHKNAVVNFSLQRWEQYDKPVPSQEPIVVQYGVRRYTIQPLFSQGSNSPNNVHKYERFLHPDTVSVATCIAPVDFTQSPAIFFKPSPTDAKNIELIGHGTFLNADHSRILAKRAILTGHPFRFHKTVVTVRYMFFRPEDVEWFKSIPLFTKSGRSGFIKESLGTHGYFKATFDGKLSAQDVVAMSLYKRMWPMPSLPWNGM
Description: co-sedimentation.

B1: recombinant Rio2 (Rio2-HA) (natural protein, yeast, UniProt P40160 1-425, looked up)
chain: MKLDTSHMRYLTTDDFRVLQAVEQGSRSHEVVPTPLIHQISGMRSQSGTNRAISDLAKLSLISKMRNVKYDGYRLTYNGIDYLALKTMLNRDTVYSVGNTIGVGKESDIYKVSDKNGNPRVMKIHRLGRTSFHSVRNNRDYLKKSNQGANWMHLSRLAANKEYQFMSMLYSKGFKVPEPFDNSRHIVVMELIEGYPMRRLRKHKNIPKLYSDLMCFIVDLANSGLIHCDFNEFNIMIKDKLEDENDCGFVVIDFPQCISIQHQDADYYFQRDVDCIRRFFKKKLKYEPKPDSSMLDTEGFGDGYKYAYPDFKRDVKRTDNLDELVQASGFSKKHPGDRGLETAVESMRNAVYNSDDDMSNDEAEEENGEGDYSEEDEYYDSELDNESSEDDSEDAQEEENERIIEALSSGVENLKMDKLGNYILE
Regarding B1, the binding result was “binds”.
